Assay [1] concerns the target Pins Linker peptide (residues 427-445), pSer436, TMR-labelled (Drosophila) (UniProt Q9VB22). Nature of the assay: fluorescence polarisation; steady state anisotropy of 0.5 µM TMR-labelled Pins peptide (427-445) with increasing concentrations of Dlg constructs; 20 mM Tris pH 8, 100 mM NaCl, 1 mM DTT; nonlinear regression.
The target of assay [2] is Pins Linker peptide (residues 427-445), unphosphorylated, TMR-labelled (Drosophila) (UniProt Q9VB22). The assay is described as above.
The target of assay [3] is Pins Linker peptide (residues 427-445), pSer436, TMR-labelled (UniProt Q9VB22). Nature of the assay: fluorescence polarisation. The following applies: read from the fitted curve at 20 µM Dlg-GK; parent: est. 0.11; read off a plot.
The target in assay [4] is T1, Dlg SH3-GK ΔHook (residues 598-975 without 679-766), as it stands in the fusion (Drosophila, UniProt P31007-5 598-975, Δ679-766).
T1 construct: Existed only joined to m11 on one chain; written apart for the pair seen in the crystal structure; also called Dlg GK^dom and its adjacent SH3 domain; GK^dom; source: E. coli BL21(DE3), purified (NiNTA, anion exchange, size exclusion), as part of the fusion m8
T1 sequence (looked up): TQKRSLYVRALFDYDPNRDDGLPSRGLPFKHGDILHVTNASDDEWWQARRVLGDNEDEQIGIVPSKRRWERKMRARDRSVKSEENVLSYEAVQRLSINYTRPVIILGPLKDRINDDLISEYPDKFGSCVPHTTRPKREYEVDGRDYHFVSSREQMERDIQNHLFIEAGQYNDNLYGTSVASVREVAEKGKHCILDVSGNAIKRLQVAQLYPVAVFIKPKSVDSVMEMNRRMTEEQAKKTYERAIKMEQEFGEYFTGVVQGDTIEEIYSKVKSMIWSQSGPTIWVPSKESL
Nature of the assay: crystal structure; Dlg SH3-GK ΔHook and Pins Linker S436D joined on one chain; vapor diffusion, 2 M NaCl, 0.1 M NaOAc pH 4.6; data to 1.6 Å; one molecule in the asymmetric unit. The following applies: both partners purified.

Consider “Dlg GK domain (isolated GK^dom) (domain or fragment)”, for which the Kd in assay [1] is 800 nM; in assay [2], above 200000 nM.

Regarding Dlg GK domain (isolated GK^dom) R822A, the response in assay [3] is 0.083.

For the molecule Dlg GK domain (isolated GK^dom) Y824A, in assay [3], the response stood at 0.11.

Turning to Dlg GK domain (isolated GK^dom) Y831A, in assay [3], the response is 0.017.

Regarding Dlg GK domain (isolated GK^dom) Y855A, the response in assay [3] was 0.08.

With Dlg SH3-GK module (domain or fragment), the Kd in assay [1] was found to be 300 nM. This lies in the sub-micromolar range.

In turn, “Dlg SH3GK fused to Pins Linker without the phosphomimetic (from UniProt P31007-5 598-975; Q9VB22 411-460)” came in with a Kd in assay [1] of 300 nM.

With “ΔHook/Pins^S436D fusion protein (Dlg 598-975 without 679-766, fused to Pins 411-460 S436D) (from UniProt P31007-5 598-975; Q9VB22 411-460)”, the Kd in assay [1] is 14000 nM.

B1: Pins Linker (residues 411-460) S436D, as it stands in the fusion (domain or fragment, Drosophila, UniProt Q9VB22 411-460, looked up)
chain: DHSASGNQSDGSENSQGRMVRVRRQDMEQLDLIKITPDGKRMQEEKLRAQ
notes: Partner of Inscuteable (Pins), Linker, residues 411-460, phosphomimetic S436D; Existed only joined to m10 on one chain; written apart for the pair seen in the crystal structure; also called Pins^LINKER S436D; Pins^S436D; source: E. coli BL21(DE3), purified (NiNTA, anion exchange, size exclusion), as part of the fusion m8
On to B1, for which the binding result in assay [4] is “binds”.

(Values after publication PMC3335814, “Structure of an Enzyme-Derived Phosphoprotein Recognition Domain” (PLoS ONE, 2012).)
